Biological target: kallikrein (human, UniProt P03952 20-638)
Sequence (P03952 20-638): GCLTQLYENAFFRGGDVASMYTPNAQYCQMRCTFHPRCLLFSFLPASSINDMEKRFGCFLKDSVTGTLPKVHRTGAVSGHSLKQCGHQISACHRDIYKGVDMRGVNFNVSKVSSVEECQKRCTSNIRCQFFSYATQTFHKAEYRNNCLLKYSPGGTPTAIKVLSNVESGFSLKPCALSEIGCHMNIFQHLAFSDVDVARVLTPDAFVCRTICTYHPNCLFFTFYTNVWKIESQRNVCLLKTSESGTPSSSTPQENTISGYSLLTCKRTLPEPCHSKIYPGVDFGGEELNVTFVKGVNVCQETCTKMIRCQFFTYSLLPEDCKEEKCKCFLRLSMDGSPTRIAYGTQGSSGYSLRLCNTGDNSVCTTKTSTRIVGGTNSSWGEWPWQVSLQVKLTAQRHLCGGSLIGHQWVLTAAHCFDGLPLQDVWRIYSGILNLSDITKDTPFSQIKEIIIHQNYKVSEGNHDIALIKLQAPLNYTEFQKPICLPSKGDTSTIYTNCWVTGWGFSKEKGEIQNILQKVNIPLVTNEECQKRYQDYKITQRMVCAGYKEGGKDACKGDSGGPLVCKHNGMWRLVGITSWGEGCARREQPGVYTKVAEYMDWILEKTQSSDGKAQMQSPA

B1: Boophilin (natural protein)
chain: QRNGFCRLPADEGICKALIPRFYFNTETGKCTMFSYGGCGGNENNFETIEDCQKACGAPERVSDFEGADFKTGCEPAADSGSCAGQLERWFYNVRSGECETFVYGGCGGNDNNYESEEECELVCKNM
modifications: N-terminus blocked (Edman degradation)
- Ki: 919 nM

Reference: PMC4706430 (2016)
